T1: mouse CRY2 (amino acids 1–512) (mouse, UniProt Q9R194 1-512)
T1 construct: Cryptochrome 2 (CRY2), mouse, residues 1-512, photolyase-homology region (PHR); also called CRY2-PHR; mCRY2
T1 sequence (looked up): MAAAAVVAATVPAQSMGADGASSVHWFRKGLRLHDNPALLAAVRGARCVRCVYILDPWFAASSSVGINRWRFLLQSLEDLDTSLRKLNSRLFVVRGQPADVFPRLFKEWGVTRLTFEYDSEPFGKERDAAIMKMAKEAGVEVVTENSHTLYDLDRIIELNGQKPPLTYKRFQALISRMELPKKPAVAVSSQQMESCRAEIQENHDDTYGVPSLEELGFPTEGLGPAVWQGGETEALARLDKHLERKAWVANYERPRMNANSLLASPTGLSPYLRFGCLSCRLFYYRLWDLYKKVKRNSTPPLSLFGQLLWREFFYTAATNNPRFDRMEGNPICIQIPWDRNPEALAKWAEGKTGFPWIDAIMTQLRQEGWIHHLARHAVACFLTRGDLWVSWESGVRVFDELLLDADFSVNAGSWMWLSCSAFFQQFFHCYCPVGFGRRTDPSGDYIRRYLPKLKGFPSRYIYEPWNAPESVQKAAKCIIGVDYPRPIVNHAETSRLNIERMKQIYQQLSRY


Assays:
[1] = target: T1, mouse CRY2 (amino acids 1–512); experiment: crystal structure; complex of purified CRY2 (1–512) and PER2 (1095–1215); crystals grown at 4°C, hanging drop, 100 mM HEPES pH 7.5, 200 mM NaCl, 15% PEG 3350; 2.8 Å; details: both partners purified
[2] = target: T1, mouse CRY2 (amino acids 1–512); experiment: pull-down; GST-PER2 immobilised on glutathione beads, CRY2-PHR incubated at 4°C for 1 hr; SDS-PAGE, Coomassie stain; details: both partners purified

Row | binding result [1] | binding result [2] | Binder
1 | binds | – | murine PER2 (amino acids 1095–1215) (domain or fragment, mouse, UniProt O54943 1095-1215, looked up, also called PER2-CBD) SSDTSHTSKYFGSIDSSENNHKAKMIPDTEESEQFIKYVLQDPIWLLMANTDDSIMMTYQLPSRDLQAVLKEDQEKLKLLQRSQPRFTEGQRRELREVHPWVHTGGLPTAIDVTGCVYCES
2 | – | binds | GST-tagged mPER2 WT (amino acids 1095–1215) (domain or fragment, mouse, UniProt O54943 1095-1215, looked up, also called WT PER2-CBD; GST-PER2; source: E. coli, purified) SSDTSHTSKYFGSIDSSENNHKAKMIPDTEESEQFIKYVLQDPIWLLMANTDDSIMMTYQLPSRDLQAVLKEDQEKLKLLQRSQPRFTEGQRRELREVHPWVHTGGLPTAIDVTGCVYCES

Reference: paper PMC4157330, “Molecular assembly of the period-cryptochrome circadian transcriptional repressor complex” (eLife, 2014)
